Assay in all cases: EMSA
Background: A gel shift assay detects complexes by their altered migration in electrophoresis.

The target in series [1] is T1, POLGα (UniProt P54098 26-1239).
Series [2] addresses T2, POLGβ (his)10 (UniProt Q9UHN1 26-485).
T2 sequence: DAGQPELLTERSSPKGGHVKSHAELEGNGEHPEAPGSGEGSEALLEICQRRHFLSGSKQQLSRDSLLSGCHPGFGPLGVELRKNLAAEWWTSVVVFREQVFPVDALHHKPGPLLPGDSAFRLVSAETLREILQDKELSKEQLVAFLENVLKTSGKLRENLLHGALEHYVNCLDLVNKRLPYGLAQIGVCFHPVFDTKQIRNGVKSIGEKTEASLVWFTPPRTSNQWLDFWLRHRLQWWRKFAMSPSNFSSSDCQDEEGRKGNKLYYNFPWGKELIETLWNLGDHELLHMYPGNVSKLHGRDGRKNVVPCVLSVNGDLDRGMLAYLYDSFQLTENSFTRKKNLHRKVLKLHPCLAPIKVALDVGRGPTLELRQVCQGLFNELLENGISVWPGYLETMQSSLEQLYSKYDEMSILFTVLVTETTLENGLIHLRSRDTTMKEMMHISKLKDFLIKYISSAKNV

The target of series [3] is T2, POLGβ (his)10. This is another data set of the same source.
Series [4] has as its target T1, POLGα. The source holds these as a separate data set.

Where two headings read alike, the source gives them in different places.

The Kd is the free concentration of one partner at which half of the binding sites on the other are occupied at equilibrium, for simple one-to-one binding.

T1 sequence (P54098 26-1239): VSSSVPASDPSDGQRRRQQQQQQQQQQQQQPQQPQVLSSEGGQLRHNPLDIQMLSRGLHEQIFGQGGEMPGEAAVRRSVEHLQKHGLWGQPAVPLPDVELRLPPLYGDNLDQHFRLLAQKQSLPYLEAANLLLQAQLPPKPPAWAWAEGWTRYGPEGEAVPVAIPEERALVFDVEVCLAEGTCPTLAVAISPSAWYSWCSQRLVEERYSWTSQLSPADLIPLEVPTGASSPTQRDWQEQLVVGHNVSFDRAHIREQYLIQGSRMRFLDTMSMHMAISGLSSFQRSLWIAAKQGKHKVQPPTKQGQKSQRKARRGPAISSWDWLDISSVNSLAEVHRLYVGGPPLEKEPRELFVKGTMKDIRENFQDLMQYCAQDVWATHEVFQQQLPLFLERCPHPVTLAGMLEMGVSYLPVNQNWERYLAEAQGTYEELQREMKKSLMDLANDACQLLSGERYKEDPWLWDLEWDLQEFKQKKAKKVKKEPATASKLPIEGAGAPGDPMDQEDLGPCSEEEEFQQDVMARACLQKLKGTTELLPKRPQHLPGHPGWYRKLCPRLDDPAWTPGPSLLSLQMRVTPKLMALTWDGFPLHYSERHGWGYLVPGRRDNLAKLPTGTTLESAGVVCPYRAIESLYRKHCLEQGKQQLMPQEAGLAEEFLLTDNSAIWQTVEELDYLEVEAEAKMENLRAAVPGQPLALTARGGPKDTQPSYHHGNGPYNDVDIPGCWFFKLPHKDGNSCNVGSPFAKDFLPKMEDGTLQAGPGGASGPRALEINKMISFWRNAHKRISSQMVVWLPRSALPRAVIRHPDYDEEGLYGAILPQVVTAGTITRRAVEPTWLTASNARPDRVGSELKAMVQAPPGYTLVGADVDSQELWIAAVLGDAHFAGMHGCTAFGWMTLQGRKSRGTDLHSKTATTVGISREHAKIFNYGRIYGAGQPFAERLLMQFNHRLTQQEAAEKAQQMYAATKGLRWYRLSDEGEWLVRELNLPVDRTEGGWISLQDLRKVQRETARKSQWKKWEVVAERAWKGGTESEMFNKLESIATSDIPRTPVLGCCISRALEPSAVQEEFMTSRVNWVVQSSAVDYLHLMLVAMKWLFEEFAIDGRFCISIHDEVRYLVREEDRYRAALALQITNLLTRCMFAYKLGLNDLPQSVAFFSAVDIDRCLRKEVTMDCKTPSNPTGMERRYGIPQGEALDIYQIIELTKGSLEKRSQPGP

B1: oligonucleotide C (free ss oligo) (ssDNA)
DNA: ACCGCTATGTATTTCGTACATTACTGCCAGCCACCATGAATATTGTACGGTACCATAAATACTTGACCACCTGTAGTACATAAAAACCCAATCCACATCAAAACCCCCTCCCCATGCTTA
Consider B1, for which the binding result in the series with POLGα [1] is listed as “binds”; with POLGβ (his)10 [2], “no binding”.

For CCGGTCGTACGGAAAACCTGTATTTTCAGGGCT (ssDNA) [33-mer ss oligonucleotide], the binding result in the series with POLGβ (his)10 [3] is on record as “no binding”. For the same molecule, the Kd in the series with POLGα [4] was found to be 92 nM.

These data come from PMC2761280.
